According to PMC12318183, “Structure reveals a regulation mechanism of plant outward-rectifying K^+ channel GORK by structural rearrangements in the CNBD–Ankyrin bridge” (Proceedings of the National Academy of Sciences of the …, 2025):

B1: GUARD CELL OUTWARD-RECTIFYING K+ (GORK) channel (natural protein, Arabidopsis thaliana)
chain: GRLRRRQEIIDHEEEESNDDVSSRRGKLSLAETFRWLDSSEHRRIETDGHNDYKYIIHPKNRWYKAWEMFILVWAIYSSLFTPMEFGFFRGLPERLFVLDIVGQIAFLVDIVLQFFVAYRDTQTYRTVYKPTRIAFRYLKSHFLMDFIGCFPWDLIYKASGKHELVRYLLWIRLFRVRKVVEFFQRLEKDTRINYLFTRILKLLFVEVYCTHTAACIFYYLATTLPPENEGYTWIGSLKLGDYSYENFREIDLWKRYTTALYFAIVTMATVGYGDIHAVNLREMIFVMIYVSFDMVLGAYLIGNITALIVKGSNTERFRDKMNDLISFMNRKKLGRDLRSQITGHVRLQYDSHYTDTVMLQDIPASIRAKIAQLLYLPYIKKVPLFKGCSTEFINQIVIRLHEEYFLPGEVITEQGNVVDHLYFVCEGLLEALVTKTDGSEESVTLLGPHTSFGDISIICNISQPFTVRVCELCHLLRLDKQSFSNILEIYFHDGRTILNNIMEEKESNDRIKKLESDIVIHIGKQEAELALKVNSAAFQGDFYQLKSLIRSGADPNKTDYDGRSPLHLAACRGYEDITLFLIQEGVDVNLKDKFGHTPLFEAVKAGQEGVIGLLVKEGASFNLEDSGNFLCTTVAKGDSDFLKRLLSSGMNPNSEDYDHRTPLHVAASEGLFLMAKMLVEAGASVISKDRWGNSPLDEARLCGNKKLIKLLEDVKNAQSSIYPSSLRELQEERIERRKCTVFPFHPQEAKEERSRKHGVVVWIPSNLEKLIVTAAKELGLSDGASFVLLSEDQGRITDIDMISDGHKLYMISDTTDQT
notes: GORK outward-rectifying K+ channel, Arabidopsis thaliana, UniProt Q94A76; optimised synthetic coding DNA; positions counted from the initial Met; the model covers about residues 50-720; No step that removes a tag is described; Solubilised in LMNG/CHS, kept in GDN; also called GORKWT1; GORKWT2

Key:
[1] = target: GORK(CA-ANK)_(AKT1) chimeric channel (Arabidopsis thaliana | Arabidopsis)
[2] = target: the molecule itself; assay: cryo-EM structure; single-particle cryo-EM of purified GORK at 4 mg/ml; SEC buffer 0.02% GDN, 150 mM KCl, 20 mM Tris pH 8.0, 2 mM DTT; consensus map and five maps from ANK-focused 3D classification

Molecule	outward K+ current of GORK(CA-ANK) (AKT1) in Xenopus oocytes with coexpressed CIPK23/CBL1 against without, two-electrode voltage clamp, at 70 mV [1] [fold]	stoichiometry N [2]
CIPK23/CBL1 protein kinase complex (from UniProt Q93VD3 1-482; O81445 1-213)	3	–
B1	–	4
